Measurements published in US20220298231A1 (AC IMMUNE, published 2022).
Where a chain is given by its changes, count along the chain named. Where no end group is shown, it is not given here. The star is where a group is joined. Biotin = O=C1N[C@H]2[C@H](CS[C@H]2CCCCC(=O)*)N1; Ahx = NCCCCCC(=O)O

T1: 82-96aa
T1 construct: also called alpha-synuclein peptide 82-96
T1 peptide: {Biotin-Ahx}-VEGAGSIAAATGFVK

T2: 91-105aa
T2 construct: also called alpha-synuclein peptide 91-105
T2 peptide: {Biotin-Ahx}-ATGFVKKDQLGKNEE

T3: 100-114aa
T3 peptide: {Biotin-Ahx}-LGKNEEGAPQEGILE

T4: 109-123aa
T4 peptide: {Biotin-Ahx}-QEGILEDMPVDPDNE

B1: ACI-7067-1108B11-Ab2 (antibody, V domains shown)
VH: EVQLVESGGGLVQPKGSLKLSCAASGFTFNTYAMHWVRQAPGKGLEWVARIRSKGSNYATNYADSVKDRFTISRDDSQSMLYLQMNNLKTEDTAMYYCVRGHGSSYFSYWGQGTLVTVSA
VL: QIVLTQSPAIMSASPGERITMTCSANSSVTYMHWYQQKSGTSPKRWIYDTSNLASGVPARFSGSGSGTSYSLTISSMEAEDAATYYCQQWKSHPPTFGAGTKLELK
B2: ACI-7067-1113D10-Ab1 (antibody, V domains shown)
VH: EVQLVESGGGLVQPKGSLKLSCAASGFTFNTYALHWVRQAPGKGLEWVARIRSKSSNYATYYADSVKDRFTISRDDSQSMLYLQMNNLKTEDTGMYYCVRGGVSPFDYWGQGTTLTVSS
VL: QIVLTQSPAIMSASPGEKVTMTCSASSSVSYMHWYQQKSGTSPKRWIYDTSKLASGVPARFSGSGSGTSYSLTISSMEAEDSATYYCQQWSNNPPTFGGGTKLEIK
B3: ACI-7067-1101C8-Ab2 (antibody, V domains shown)
VH: EVQLVESGGGLVQPKGSLKLSCAASGFSFNIYAMNWVRQAPGKGLEWVARIRSKSNNYATYYADSVKDRFTISRADSESMLYLQMNNLKTEDTAMYYCVRVGLRFYAMDYWGQGTSVTVSS
VL: DVLMTQTPLSLPVSLGDQASISCRSSQSIVHSNGNTYLEWYLQKPGQSPKLLIYKVSNRFSGVPDRFSGSGSGTDFTLKISRVEAEDLGVYYCFQGSQGPLTFGAGTKLELK
B4: hACI-7067-1101C8-Ab2_H5L1 (antibody, V domains shown)
VH: EVQLVESGGGLVQPGGSLKLSCAASGFSFNIYAMNWVRQAPGKGLEWVGRIRSKSNAYATYYAASVKGRFTISRDDSKNTLYLQMNNLKTEDTAVYYCTRVGLRFYAMDYWGQGTLVTVSS
VL: DVVMTQSPLSLPVTLGQPASISCRSSQSIVHSNANTYLEWYQQRPGQSPRLLIYKVSNRFSGVPDRFSGSGSGTDFTLKISRVEAEDLGVYYCFQGSQGPLTFGQGTKLEIK
notes: VH on human IgG1 constant, VL on human kappa constant
B5: hACI-7067-1101C8-Ab2_H8L1 (antibody, V domains shown)
VH: B4 VH with M108L
VL: B4 VL
notes: as for B4
B6: hACI-7067-1101C8-Ab2_H9L1 (antibody, V domains shown)
VH: B4 VH with S28T
VL: B4 VL
notes: as for B4
B7: hACI-7067-1101C8-Ab2_H10L1 (antibody, V domains shown)
VH: B4 VH with S28T, M108L
VL: B4 VL
notes: as for B4
B8: hACI-7067-1101C8-Ab2_H12L2 (antibody, V domains shown)
VH: B4 VH with S28T, L81A, M108L
VL: B4 VL with I29L
notes: as for B4
B9: ACI-8033-1A12-Ab1 (antibody, V domains shown)
VH: QVHLKQSGADLVRPGASVKLSCKASGYSFTDFYINWVKQTPGQGLEWIARIYPGNNNTFYNEKFKGKATLSAEKSSTTAYMQLSSLTSEDSAVYFCVVGYYGAWGQGTTLTVSS
VL: DVVMTQTPLSLPVSLGDQASISCRSSQSLVHSNGNTHLHWYLQKPGQSPKLLIYKVSNRFSGVPDRFSGSGSGTDFTLKISRVEAEDLGFYFCSQSTHVPWTFGGGTKLEIK
notes: mouse hybridoma mAb; also called 917.1A12C1B4
B10: ACI-8033-1G10-Ab1 (antibody, V domains shown)
VH: DVQLQESGPGLVKPSQTVFLTCTVTGISITTGNYRWSWIRQFPGNKLEWIGYIYYSGTITYNPSLTSRTTITRDTPKNQFFLEMNSLTAEDTATYYCARIYYGNAMDYWGQGTSVTVSS
VL: B9 VL with H37Y, F90V, W101H
notes: mouse hybridoma mAb; also called 917.1G10A10F6
B11: ACI-8033-25A3-Ab1 (antibody, V domains shown)
VH: EVQLVESGGGLVQPKGSLKLSCAASGFSFNTYAMNWVRQAPGKGLEWVARIRSKSNNFATYYADSVKDRFTISRDESESMLYLQMNNLKTEDTAMYYCVRSFDYWGQGTTLTVSS
VL: DIKMTQSPSSMYASLGERVTITCKASQDINSYLSWFQQKPGKSPKTLIYRAKRLVDGVPSRFSGSGSGQDYSLTISSLEYEDMGIYYCLQYDEFPFTFGSGTKLEIK
notes: mouse hybridoma mAb; also called 917.25A3E9F6
B12: ACI-8033-1F8-Ab1 (antibody, V domains shown)
VH: DVQLQESGPGLVKPSQSLSLTCSVTGYSITSGFYWNWIRQFPGNKLEWMGYISYDGSNNYNPSLKNRISIIRDTSKNQFFLKLKSVTSEDTATYYCVRGDVDWGQGTTLTVSS
VL: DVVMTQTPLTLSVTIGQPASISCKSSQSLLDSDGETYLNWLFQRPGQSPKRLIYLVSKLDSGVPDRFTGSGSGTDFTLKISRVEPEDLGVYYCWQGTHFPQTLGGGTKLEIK
notes: mouse hybridoma mAb; also called 917.1F8D8E4
B13: hACI-7067-1101C8-Ab2_H11L2 (antibody, V domains shown)
VH: B4 VH with S28T, L81A
VL: B4 VL with I29L
notes: as for B4
B14: hACI-7067-1101C8-Ab2_H12L1 (antibody, V domains shown)
VH: B4 VH with S28T, L81A, M108L
VL: B4 VL
notes: as for B4
B15: hACI-7067-1101C8-Ab2_H10L2 (antibody, V domains shown)
VH: B4 VH with S28T, M108L
VL: B4 VL with I29L
notes: as for B4
B16: hACI-7067-1101C8-Ab2_H11L1 (antibody, V domains shown)
VH: B4 VH with S28T, L81A
VL: B4 VL
notes: as for B4
B17: hACI-7067-1101C8-Ab2_H9L2 (antibody, V domains shown)
VH: B4 VH with S28T
VL: B4 VL with I29L
notes: as for B4
B18: hACI-7067-1101C8-Ab2_H6L1 (antibody, V domains shown)
VH: B4 VH with G49A, T99V, M108S
VL: B4 VL
notes: as for B4

Each binder was assayed against T5, alpha-synuclein fibrils (Homo sapiens (Human), UniProt P37840 1-140) (assay: cell-based or functional assay).

IC50, de novo alpha-synuclein aggregates formed in seeded mouse primary cortical neurons [nM] | IC50, de novo alpha-synuclein aggregates formed in the seeded in vitro cellular model [nM] | Binder
143 | 4.5 | B1
702 | 39.6 | B2
114 | 3.3 | B3

The binders below were run against T5, alpha-synuclein fibrils (assay: SPR, mAb captured, 1:1 model).
Protocol: (§1) Non-covalent immobilization of alpha-synuclein antibodies was performed using a target immobilization method of 200 response units (RU). […] Binding affinity of alpha-synuclein antibodies to monomeric or fibrillar alpha-synuclein species was performed using a single-cycle kinetics method. […] A dissociation phase of 900 sec followed the final 50 nM injection. Regeneration of the sensor to the goat anti-human antibody layer was achieved using 3 regenerations of 10 mM Glycine pH 1.7. […] Regeneration of the sensor to the goat anti-human antibody layer was achieved using 3 regenerations of 10 mM Glycine pH 1.7. Results obtained from single-cycle kinetics were evaluated by Biacore K8 evaluation software with 1:1 binding homogenous Langmuir model (with a global Rmax) with Cycle 5 as a blank subtraction. The following kinetic parameters were obtained: on-rate (ka), off-rate (kd), affinity constant (KD, ratio of kd by ka), maximum response (Rmax), and goodness of fit (Chi2).
(§2) Kinetic constants were determined from 1:1 homogenous binding models for binding versus the aggregated form, while a steady state fit was used to determine KD values versus the monomeric form of alpha-synuclein.

Kd [nM] | koff [s⁻¹] | kon [M⁻¹ s⁻¹] | Binder
1 | 2.18e-05 | 22000 | B4
2 | 3.6e-05 | 17600 | B5
0.9 | 2.25e-05 | 23900 | B6
 |  | 11500 | B7
13.7 | 0.000142 | 10400 | B8

Biological target: T1, 82-96aa
Assay: 15-mer peptide ELISA;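 also: indirect ELISA of hybridoma supernatant antibodies (1/100, 1 h) binding immobilized 15-mer peptides spanning human alpha-synuclein 1-140 on streptavidin plates, read as optical density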
Protocol: (§3) Epitope mapping for the antibodies derived from stable hybridoma clones was determined using an indirect ELISA on a library of 15-mer peptides covering the entire sequence of human alpha-synuclein from 1 to 140aa. […] Results are expressed as optical density (O.D.). Each bar represents data for an individual antibody.
(§4) Serum-free supernatants were harvested from stable hybridomas. The supernatants containing antibodies of interest were then screened by an indirect ELISA assay to determine epitopes. Epitopes were first determined using a library of 15-mer peptides covering the entire sequence of human alpha-synuclein protein, spanning amino acids (aa) 1-140 with 9aa offset and 6aa overlap. […] Briefly, streptavidin-coated ELISA plates were blocked overnight at 4° C. […] Plates were washed with PBS/0.05% Tween® 20 and then incubated with the hybridoma supernatants at 1/100 dilution for 1 hour at 25° C. […] After final wash, plates were incubated 2 hours at 25° C. with alkaline phosphatase substrate (p-nitrophenyl phosphate disodium hexahydrate; pNPP, S0942, Sigma) and read the absorbance optical density (O.D.) signal at 405 nm using an ELISA plate reader (Tecan, Switzerland).

binding result | Binder
no binding (tested: supernatant 1/100) | B9
no binding (tested: supernatant 1/100) | B10
no binding (tested: supernatant 1/100) | B11

Biological target: T2, 91-105aa
Assay: 15-mer peptide ELISA;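 also: indirect ELISA of hybridoma supernatant antibodies (1/100, 1 h) binding immobilized 15-mer peptides spanning human alpha-synuclein 1-140 on streptavidin plates, read as optical density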
Protocol: as §3, §4

binding result | Binder
no binding (tested: supernatant 1/100) | B12
no binding (tested: supernatant 1/100) | B9
no binding (tested: supernatant 1/100) | B10
no binding (tested: supernatant 1/100) | B11

Biological target: T3, 100-114aa
Assay: 15-mer peptide ELISA;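 also: indirect ELISA of hybridoma supernatant antibodies (1/100, 1 h) binding immobilized 15-mer peptides spanning human alpha-synuclein 1-140 on streptavidin plates, read as optical density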
Protocol: as §3, §4

binding result | Binder
no binding (tested: supernatant 1/100) | B12
no binding (tested: supernatant 1/100) | B9
no binding (tested: supernatant 1/100) | B11

Biological target: T4, 109-123aa
Assay: 15-mer peptide ELISA;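 also: indirect ELISA of hybridoma supernatant antibodies (1/100, 1 h) binding immobilized 15-mer peptides spanning human alpha-synuclein 1-140 on streptavidin plates, read as optical density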
Protocol: as §3, §4

binding result | Binder
no binding (tested: supernatant 1/100) | B12
no binding (tested: supernatant 1/100) | B11

What follows are binders tested against T6, human full-length alpha-synuclein (human, UniProt P37840 1-140) (assay: SPR, mAb captured, steady-state fit).
Protocol: as §1, §2

Kd [nM] | Binder
20.1 | B4
40 | B5
80.1 | B13
64.4 | B14
18.2 | B6
48.2 | B7
35.1 | B15
48 | B16
66.9 | B17
28.7 | B8

The binders below were run against T6, human full-length alpha-synuclein (assay: SPR, 100 nM monomer, relative to chimeric;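 also: SPR with antibody variants captured via anti-human Fc IgG on an amine-coupled chip, isotype IgG1 reference channel subtracted, dissociation rate fitted by 1:1 or heterogeneous ligand model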).
Protocol: (§5) Flow channels (Fc) 1-8 were activated with a fresh solution of EDC/NHS (Amine Coupling Kit, 1:1 ratio of both reagents, GE Healthcare Life Sciences, BR100050). […] The chip was deactivated by 1 M ethanolamine-HCl (GE Healthcare Life Sciences, BR100050) at a flow rate of 10 μL/min for 420 s.
(§6) A human IgG1 isotype control diluted in running buffer 1×HBS-EP+ (GE Healthcare Life Sciences, BR100669) was captured onto Fc1 via anti-human Fc IgG at a flow rate of 10 μL/min. […] 10 mM glycine pH 1.5 as regeneration buffer was injected following every dissociation phase.
(§7) The data for reference channel Fc1 and buffer channel were subtracted to generate the sensorgrams. The experimental data was fitted by 1:1 binding model or heterogeneous ligand model.

Relative koff | Binder
1.1 | B4
0.3 | B18
0.2 | B5
0.8 | B13
0.2 | B14
1.3 | B6
0.2 | B7
0.2 | B15
0.8 | B16
0.8 | B17
0.1 | B8

Each binder was assayed against T5, alpha-synuclein fibrils (assay: SPR, 450 nM aggregates, relative to chimeric;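 also: surface plasmon resonance with anti-human Fc capture, human IgG1 isotype control channel and buffer run subtracted, dissociation rates fitted by 1:1 or heterogeneous ligand binding model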).
Protocol: as §5, §6, §7

Relative koff | Binder
1.5 | B4
1 | B18
1.1 | B5
5.4 | B13
1 | B14
5.5 | B6
1.7 | B7
0.8 | B15
62 | B16
2.3 | B17
0.3 | B8

Biological target: T4, 109-123aa
Assay: indirect ELISA on biotinylated 15-mer peptide (streptavidin plate), supernatant 1/100
Protocol: as §3, §4

binding result | Binder
binds | B9
binds | B10
